From patent US20220153838A1

Target: CD19 (UniProt P15391)
Test: cell-based or functional assay

FMC63-CD8BBZ CAR, sequence (Q07011 209-255): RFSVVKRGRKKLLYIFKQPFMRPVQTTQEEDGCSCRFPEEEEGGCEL
UniProt P15391, sequence (P15391 20-556 limits assumed): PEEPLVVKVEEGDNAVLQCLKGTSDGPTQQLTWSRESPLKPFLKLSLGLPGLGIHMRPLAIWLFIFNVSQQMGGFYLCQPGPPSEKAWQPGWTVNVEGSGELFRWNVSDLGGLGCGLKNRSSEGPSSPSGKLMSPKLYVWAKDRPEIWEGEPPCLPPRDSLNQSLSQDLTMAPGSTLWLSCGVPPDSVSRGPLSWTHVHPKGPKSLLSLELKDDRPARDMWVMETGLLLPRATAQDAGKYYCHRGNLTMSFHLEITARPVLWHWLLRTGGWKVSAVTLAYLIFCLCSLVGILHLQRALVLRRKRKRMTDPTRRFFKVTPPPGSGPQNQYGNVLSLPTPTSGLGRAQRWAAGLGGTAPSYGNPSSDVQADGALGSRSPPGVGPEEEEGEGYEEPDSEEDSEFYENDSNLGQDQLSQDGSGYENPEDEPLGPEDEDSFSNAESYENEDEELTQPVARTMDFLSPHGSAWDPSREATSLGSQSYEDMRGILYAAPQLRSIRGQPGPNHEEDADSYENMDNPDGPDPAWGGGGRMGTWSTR

FMC63-CD8BBZ CAR
IFNγ ELISA, CAR T-cells cultured overnight with CD19-K562 cells: 44300 pg/mL IFNγ
IFNγ ELISA, CAR T-cells cultured overnight with primary CLL cells (CD19-Positive Targets): 13900 pg/mL IFNγ
